Measurements from the DeepSol protein solubility set.

Assay: soluble on expression in E. coli; label from the status in PepcDB or PDB records
In the case of “GMATYNYPEFGAGLWHFANYIDRYAVDGYGPALSTIDQINAAKEVGELSYVDLPYPFTPGVTLSEVKDALKDAGLKAIGITPEIYLQKWSRGAFTNPDPAARAAAFELMHESAGIVRELGANYVKVWPGQDGWDYPFQVSHKNLWKLAVDGMRDLAGANPDVKFAIEYKPREPRVKMTWDSAARTLLGIEDIGLDNVGVLLDFGHALYGGESPADSAQLIIDRGRLFGMDVNDNLRGWDDDLVVGTVHMTEIFEFFYVLKINNWQGVWQLDQFPFRENHVEAAQLSIRFLKHIYRALDKLDIPALQAAQEAQNPLQAQRIVQDALLSSITVSE”, the “soluble on expression in E. coli” value is reported as “soluble”.
For “GMEFYEVIKKRKSIKKFEQTAIDRDKLLKIIDMAMRAPSWKNKTPYKFIVVESDKLKLDIANAIENKTSAASEAVLNSPMTIVAVANPEESGDVSGKEIYLIDTAIAMEHIVLGATDEGYGTCWIAAFNENKIKEALKIPDNLRVVALTPLGVPKDSAEDEPHHPKKDMDEYLYIDKWGTSFMESNVKILEKN”, the “soluble on expression in E. coli” value was “soluble”.
With “GMENEENSAREQEADDFLHIASVKEDWGGDGRGRMNLSGRRTAIAKEYLPRQYQFFDTNTVMEKQGWRVRGMPDNIAPGSRRLLTWHDSGASTSRVVLPPKFEAPSGIFTADLEIFVIKGAIQLGEWQLNKHSYSFIPAGVRIGSWKVLGGEEAEILWMENGSVPLEYKYAQEDHPDARLSDFIPALDSKLLPWGKADTVQFVQANKKWLRKDINGGGVWLLAILPHFDNKYQMIQPYNEEGYCLTGYCDVGDYRIVKDHYWYCPSFSTLPRHITDDGGLFFVRVDRDLSKVATVLSYAPQDT” the “soluble on expression in E. coli” value was “soluble”.
For “GMEQQHPTIHTLKIETEFFKAVKERRKTFEIRKNDRNFQVGDILILEEYMNGMYLDDECEAEVIYITDYAQREGYVVLGIELH”, the “soluble on expression in E. coli” value was “soluble”.
In the case of “GMFNESDAPQPPKVLSTPLEIAANLRQLQESHDPLIITFHDRSHRFQSYVVHVDRESNTLALDEMIPRDGEKFIENGEHFRVEGFHDGVRIAWECDHALKISEVDGHRCYSGPLPQEVTYHQRRNAFRAALKLSQLVDIILDGAHLKGNGAMRGKLLDISATGCKLRFEGNVEDRLQLGQVYERFKAGNPLGLVDTMVELRHLHYEERINTTFAGVRFHNLSGQAQRKIESFVYQLQREARRFDKDDY”, the “soluble on expression in E. coli” value is reported as “soluble”.
For “GMGSYQLLVPPPEALSKPLSVPTRLLLGPGPSNLAPRVLAAGSLRMIGHMQKEMLQIMEEIKQGIQYVFQTRNPLTLVVSGSGHCAMETALFNLLEPGDSFLTGTNGIWGMRAAEIADRIGARVHQMIKKPGEHYTLQEVEEGLAQHKPVLLFLVHGESSTGVVQPLDGFGELCHRYQCLLLVDSVASLGGVPIYMDQQGIDIMYSSSQKVLNAPPGISLISFNDKAKYKVYSRKTKPVSFYTDITYLAKLWGCEGETRVIHHTTPVTSLYCLRESLALIAEQGLENCWRRHREATAHLHKHLQEMGLKFFVKDPEIRLPTITTVTVPAGYNWRDIVSYVLDHFSIEISGGLGPTEERVLRIGLLGYNATTENVDRVAEALREALQHCPKNKL”, the “soluble on expression in E. coli” value was “soluble”.
In the case of “GMINTKEDFLLLIKQIEQKSGYKKPKAFGIARLDRGQLNKNKILQASFALINYEQNFGSAAIMLEAFMQRGVEIDFNASEFVQTLKLEDIDFALSCFKPFLEEDGHQNIDLLKIIKDKFKDDEFSFVCLFEDKEPLSVESIYLKLYLLSTKKVPLRSINLNGAFGLLSNVAWSDDKPIELEYLRANEMRLKMSNQYPKIDFVDKFPRFLAHIIPEDNTRILESSKVRMGASLAAGTTIMPGASYVNFNAGTTGACMVEGRISSSAIVGEGSDVGGGASILGVLSGTSGNAISVGKACLLGANSVTGIPLGDNCIVDAGIAVLEGTKFLLKDAEELAKLNPYFNFDKEIYKGLELKGLNGLHFRQDSISGAMIVALNKKAVKLNEALH”, the “soluble on expression in E. coli” value is reported as “soluble”.
In the case of “GMLPRLCCLEKGPNGYGFHLHGEKGKLGQYIRLVEPGSPAEKAGLLAGDRLVEVNGENVEKETHQQVVSRIRAALNAVRLLVVDPEEDSFL”, the “soluble on expression in E. coli” value is reported as “soluble”.
For “GMMNKPAPRELEVIRSTYITPHMLRITLGGAGLAGFPADQESAYIKLLFPQAGERPLMRTYTIRQQRDDEIDVDFVLHDTDGPASSWAKTAQVGELIQIGGPGLKKLINFEADWFLLAGDMTALPAISVNLAKLPNNAVGYAVIEVLSEADIQPLVHPEHVELHWVINPEADPEGRPLVERIAQLPWLAGEPAVWIACEFNSMRALRRHFKQAHALPKSHFYTSSYWKIGCNEGEHKLVKQEDEQLENGASV”, the “soluble on expression in E. coli” value was “soluble”.
